Experimental data taken from publication PMC9231623 (2022).

Biological target: T1, SNX5 PX domain (UniProt Q9Y5X3 25-172)
T1 chain: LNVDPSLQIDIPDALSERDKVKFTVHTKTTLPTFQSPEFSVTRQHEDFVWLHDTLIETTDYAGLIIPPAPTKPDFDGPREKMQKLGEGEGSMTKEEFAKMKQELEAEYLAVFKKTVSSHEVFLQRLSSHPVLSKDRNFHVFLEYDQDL
Experiment: ITC

B1: NRP1 peptide (residues 894 to 918 of the cytosolic tail) (peptide)
peptide: not shown
With B1 the Kd was 17.6 µM.
